Laboratory results as given in patent publication US9605064B2, “Methods and compositions for treatment of skin disorders” (AbbVie Biotechnology Ltd, priority 2006, dated 2017).
Marks after values point to notes of the source that are not given here.

How the values were obtained:
[1] = system: patients with moderate to severe chronic plaque psoriasis; test: PGA, CHAMPION 16-week Phase III trial; format: in vivo, human; conditions: ITT, missing PGA = not achieving
Experimental: Analytical methods included the following: • Intention-to-treat analyses were performed for all randomized patients • Missing data were analyzed using non-responder imputation (NRI) • PASI 75 at Week 16 (primary endpoint) was analyzed using adjusted Cochran-Mantel-Haenszel test.

[2] = system: adult patients with moderate to severe chronic plaque psoriasis; test: PASI response and loss of adequate response, REVEAL 52-week Phase III trial; format: in vivo, human; conditions: for PASI 100 Response Rates, % Patients: n = 814, ITT, NRI; for Mean Percentage PASI Improvement During Period B: relative to baseline, patients randomized to adalimumab who entered Period B, as observed; for patients with loss of adequate response: Week 33 PASI 75 responders re-randomized to continue adalimumab in period C, by Week 52
Excerpt: The main inclusion criteria for this study included a clinical diagnosis of psoriasis for ≧6 months and affected body surface area (BSA)≧10% and PASI≧12. The main exclusion criteria included prior use of systemic or biologic anti-TNF therapy. The washout period included two weeks for topical agents and UVB, 4 weeks for PUVA and non-biologic systemic therapies, and 12 weeks for all biologic therapies. The two co-primary endpoints were: • Percentage of patients achieving PASI≧75 at Week 16 • Percentage of patients, among Week 33 PASI≧75 responders, losing an adequate response after Week 33, characterized by: • PASI<50 (relative to baseline) and • At least a 6 point increase in PASI
Period A was double-blind, placebo-controlled, and lasted from weeks 0-16. […] At Week 16 patients who achieved ≧PASI 75 improvement continued into Period B, while those patients having <PASI 75 improvement entered the open label extension (OLE) study (FIG. 7).
Period B was open-label and lasted from Weeks 17-33. […] Patients who achieved ≧PASI 75 response at Week 33 entered Period C.
Period C was a double-blind, placebo-controlled which was held from weeks 34-52.
Various analytical methods were used in the study. Intention-to-treat (ITT) analyses were performed for all randomized patients in Periods A and C. […] Week 24 results from NRI analysis include pooled efficacy outcomes from OLE and Period B. After Week 24, non-overlapping OLE and Period B study visits prevent complete pooling of efficacy outcomes. Continuous variables were analyzed as observed during Period B
The REVEAL study had two independent primary endpoints. The first endpoint was the proportion of patients achieving 75 percent improvement in skin clearance after 16 weeks. The second endpoint was the proportion of patients who lost adequate response through week 52 after stopping treatment with HUMIRA at week 33. Signs of psoriasis were evaluated using the Psoriasis Area and Severity Index (PASI), among other measures. […] At week 52, the start of the OLE period, patients randomized at week 33, as well as patients originally in the placebo group at week 0, were able to enter the OLE period.

[3] = system: patients with moderate to severe psoriasis; test: PGA, open-label extension of REVEAL; format: in vivo, human; conditions: for PGA “Clear” or “Minimal”: n = 233, ITT, LOCF
Experimental: Laboratory parameters and adverse events were also recorded.

[4] = system: patients with severe psoriasis who were non-responders to high-dosage etanercept; test: Adverse events, open-label adalimumab in non-responders to high-dosage etanercept; format: in vivo, human; conditions: 12 weeks
Experimental: Details on clinical course and adverse events were recorded, along with measurements of PASI and Dermatology Life Quality Index (DLQI) at baseline and Weeks 2, 4, 8, and 12.

[5] = system: patients with moderate to severe psoriasis; conditions: in vivo
[6] = system: patients with moderate to severe chronic plaque psoriasis; conditions: in vivo
hepatitis B virus (HBV) = conditions: cited from earlier work
[7] = system: patients with moderate to severe chronic plaque psoriasis; test: Adverse events, 120-week open-label extension study; conditions: 40 mg eow; for Hypercholesterolemia / Increased triglycerides: non-fasting
Experimental: Inclusion criteria included: moderate to severe chronic plaque psoriasis: ≧1 year and affected BSA: ≧5%. Exclusion criteria included prior TNF-antagonist therapy.
PASI responses and PGA scores were analyzed as observed. […] Thus, patients whose dosages increased were counted as non-responders from the time of dosage escalation. Adverse events were collected throughout the 120-week period.

[8] = system: patients with moderate to severe plaque psoriasis; test: Adverse events and laboratory abnormalities, 12-week open-label weekly therapy then randomized eow or withdrawal
[9] = Double-blind period Weeks 12-24, 40 mg eow (N = 68)
[10] = Open-label period Weeks 0-11, 40 mg weekly (N = 148)

Adalimumab: a human anti-TNF mAb, described in U.S. Pat. No. 6,090,382 as D2E7 (HUMIRA, Abbott Laboratories)
PGA “Clear” or “Minimal” Responses, % Patients ([1]; Week 4): 7*† % | PGA “Clear” or “Minimal” Responses, % Patients ([1]; Week 8): 27‡§ % | PGA “Clear” or “Minimal” Responses, % Patients ([1]; Week 12): 48‡§ % | PGA “Clear” or “Minimal” Responses, % Patients ([1]; Week 16): 52‡§ % | PASI 100 Response Rates, % Patients ([2]; Week 4, double-blind): 0.9% | PASI 100 Response Rates, % Patients ([2]; Week 8, double-blind): 7.1* % | PASI 100 Response Rates, % Patients ([2]; Week 12, double-blind): 14.4* % | PASI 100 Response Rates, % Patients ([2]; Week 16, double-blind): 20* % | Mean Percentage PASI Improvement During Period B ([2]; Week 16): 91.9% | PASI 100 Response Rates, % Patients ([2]; Week 24, open-label, pooled Period B and OLE): 22.5* % | Mean Percentage PASI Improvement During Period B ([2]; Week 24): 91.2% | Mean Percentage PASI Improvement During Period B ([2]; Week 33): 89.3% | patients with loss of adequate response [2]: 4.9* % | patients with loss of adequate response ([2]; listed as adalimumab): 5% | PGA scores of “clear” or “minimal ([3]; OLE of REVEAL): 74% | PGA “Clear” or “Minimal” ([3]; Week 0 of OLE): 70% | PGA “Clear” or “Minimal” ([3]; Week 12 of OLE): 71% | PGA “Clear” or “Minimal” ([3]; Week 24 of OLE): 74% | Serious Adverse Events [4]: No serious adverse events were reported | Infectious AEs, Patients (%) [5]: 18% | Serious infectious AE, Patients (%) [5]: 1% | patients with serious infections [5]: 0.9% | serious infections [6]: no patients experienced serious infections | reactivation of hepatitis B virus (HBV) (hepatitis B virus (HBV)): associated with reactivation of hepatitis B virus (HBV) | cases of tuberculosis, demyelinating disorder, lupus-like syndrome, lymphoma, or congestive heart failure ([7]; 120-week period): No cases | AEs leading to withdrawal, patients ([7]; Week 0-24 (n = 92)): 4 (4.3) n (%) | Any AE, patients ([7]; Week 0-24 (n = 92)): 69 (75.0) n (%) | Diarrhea ([7]; Week 0-24 (n = 92)): 5 (5.4) n (%) | Headache ([7]; Week 0-24 (n = 92)): 7 (7.6) n (%) | Infectious AEs, patients ([7]; Week 0-24 (n = 92)): 28 (30.4) n (%) | Malignant AEs, patients ([7]; Week 0-24 (n = 92)): 1 (1.1) n (%) | Nasopharyngitis ([7]; Week 0-24 (n = 92)): 9 (9.8) n (%) | Serious AEs, patients ([7]; Week 0-24 (n = 92)): 2 (2.2) n (%) | Sinusitis ([7]; Week 0-24 (n = 92)): 1 (1.1) n (%) | Hypercholesterolemia ([7]; Week 0-24 (n = 92)): 4 (4.3) n (%) | Increased triglycerides ([7]; Week 0-24 (n = 92)): 7 (7.6) n (%) | AEs leading to withdrawal, patients ([7]; Week 25-48 (n = 78)): 0 (0.0) n (%) | Any AE, patients ([7]; Week 25-48 (n = 78)): 33 (42.3) n (%) | Diarrhea ([7]; Week 25-48 (n = 78)): 1 (1.3) n (%) | Headache ([7]; Week 25-48 (n = 78)): 0 (0.0) n (%) | Malignant AEs, patients ([7]; Week 25-48 (n = 78)): 0 (0.0) n (%) | Nasopharyngitis ([7]; Week 25-48 (n = 78)): 5 (6.4) n (%) | Serious AEs, patients ([7]; Week 25-48 (n = 78)): 0 (0.0) n (%) | Sinusitis ([7]; Week 25-48 (n = 78)): 1 (1.3) n (%) | Hypercholesterolemia ([7]; Week 25-48 (n = 78)): 0 (0.0) n (%) | Increased triglycerides ([7]; Week 25-48 (n = 78)): 1 (1.3) n (%) | AEs leading to withdrawal, patients ([7]; Week 49-72 (n = 62)): 0 (0.0) n (%) | Any AE, patients ([7]; Week 49-72 (n = 62)): 28 (45.2) n (%) | Diarrhea ([7]; Week 49-72 (n = 62)): 1 (1.6) n (%) | Headache ([7]; Week 49-72 (n = 62)): 0 (0.0) n (%) | Malignant AEs, patients ([7]; Week 49-72 (n = 62)): 0 (0.0) n (%) | Nasopharyngitis ([7]; Week 49-72 (n = 62)): 1 (1.6) n (%) | Serious AEs, patients ([7]; Week 49-72 (n = 62)): 0 (0.0) n (%) | Sinusitis ([7]; Week 49-72 (n = 62)): 1 (1.6) n (%) | Hypercholesterolemia ([7]; Week 49-72 (n = 62)): 1 (1.6) n (%) | Increased triglycerides ([7]; Week 49-72 (n = 62)): 1 (1.6) n (%) | AEs leading to withdrawal, patients ([7]; Week 73-96 (n = 55)): 0 (0.0) n (%) | Any AE, patients ([7]; Week 73-96 (n = 55)): 27 (49.1) n (%) | Diarrhea ([7]; Week 73-96 (n = 55)): 0 (0.0) n (%) | Headache ([7]; Week 73-96 (n = 55)): 0 (0.0) n (%) | Malignant AEs, patients ([7]; Week 73-96 (n = 55)): 0 (0.0) n (%) | Nasopharyngitis ([7]; Week 73-96 (n = 55)): 3 (5.5) n (%) | Serious AEs, patients ([7]; Week 73-96 (n = 55)): 0 (0.0) n (%) | Sinusitis ([7]; Week 73-96 (n = 55)): 3 (5.5) n (%) | Hypercholesterolemia ([7]; Week 73-96 (n = 55)): 3 (5.5) n (%) | Increased triglycerides ([7]; Week 73-96 (n = 55)): 1 (1.8) n (%) | AEs leading to withdrawal, patients ([7]; Week 97-120 (n = 53)): 0 (0.0) n (%) | Any AE, patients ([7]; Week 97-120 (n = 53)): 25 (47.2) n (%) | Diarrhea ([7]; Week 97-120 (n = 53)): 3 (5.7) n (%) | Headache ([7]; Week 97-120 (n = 53)): 0 (0.0) n (%) | Malignant AEs, patients ([7]; Week 97-120 (n = 53)): 0 (0.0) n (%) | Nasopharyngitis ([7]; Week 97-120 (n = 53)): 2 (3.8) n (%) | Serious AEs, patients ([7]; Week 97-120 (n = 53)): 1 (1.9) n (%) | Sinusitis ([7]; Week 97-120 (n = 53)): 1 (1-9) n (%) | Hypercholesterolemia ([7]; Week 97-120 (n = 53)): 1 (1.9) n (%) | Increased triglycerides ([7]; Week 97-120 (n = 53)): 0 (0.0) n (%) | patients with serious adverse events ([8]; 24-week trial): Four patients | tuberculosis or other opportunistic infections, lymphoma, melanoma, other malignancies, demyelinating disorders, lupus-like syndromes, congestive heart failure ([8]; 24-week trial): No patients developed | Any AE [8, 9]: 46 (67.6) n (%) | Any AEs leading to discontinuation [8, 9]: 2 (2.9) n (%) | Any SAE [8, 9]: 2 (2.9) n (%) | Arthralgia [8, 9]: 5 (7.4) n (%) | Headache [8, 9]: 1 (1.5) n (%) | Injection site reaction [8, 9]: 4 (5.9) n (%) | Nasopharyngitis [8, 9]: 3 (4.4) n (%) | Any AE [8, 10]: 105 (70.9) n (%) | Any AEs leading to discontinuation [8, 10]: 1 (0.7) n (%) | Any SAE [8, 10]: 2 (1.4) n (%) | Arthralgia [8, 10]: 4 (2.7) n (%) | Headache [8, 10]: 11 (7.4) n (%) | Injection site reaction [8, 10]: 17 (11.5) n (%) | Nasopharyngitis [8, 10]: 11 (7.4) n (%) | ALT elevation greater than 2.5 times the upper limit of normal ([8]; Week 12): No patients | ALT elevation greater than 2.5 times the upper limit of normal ([8]; adalimumab eow group, Week 24): One patient | arthralgias ([8]; adalimumab eow group, Weeks 12-24): 7.4% | patients who withdrew because of an adverse event ([8]; of the 148 patients who received at least one dose): three | rebound (pre-specified definition) ([8]; three patients classified by investigators as rebounders): None of the three patients met the study's pre-specified definition of rebound
